Here are results for one substance from paper doi:10.64898/2025.12.08.692957.

Bounds are passed on as bounds.

Test [1] deals with Hcp (purified) (Acinetobacter baylyi). Kind of test: mass photometry.
Test [2] shares this target. Kind of test: flow-induced dispersion analysis.
In test [3] the target is TagF, DyLight 488 labelled (Acinetobacter baylyi). Kind of test: flow-induced dispersion analysis.

For the substance Hcp (purified) (natural protein), in test [1], the percent of Hcp present as hexameric complex was greater than 93% and the stoichiometry N amounted to 6. In test [2], this substance gave a stoichiometry N of 6. This substance also showed a Kd in test [3] of 30.4 µM.
